Assay: yeast display, Sf9 membrane polyspecificity reagent, FACS + sequencing; frameworks hold sequencing errors
In short: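 In a synthetic yeast display library (Saccharomyces cerevisiae BJ5465), nanobody expression was induced with galactose for 36–48 hours. FACS gates were set low and high (top ~1%) using anti-HA fluorescence for expression and streptavidin fluorescence for binding of the Sf9 membrane reagent. Each polyreactivity label is drawn from the gate of origin.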

| Sequence | polyreactivity (PSR sort gate) |
| --- | --- |
| QVQLVESGGGLVQAGGSLRLSCAASGSIISRNAMGWYRQAPGKEREFVAAITRSGGSTSYADSVKGRFTISRDNAKSTVYLQMNSLKPEDTAVYYCAAAQKYRKEFDSWGQGTQVTVSS | high polyreactivity |
| QVQLVESGGGLVQAGGSLRLSCAASGSIITDYAMGWYRQAPGKERELVATITDSGGSTYYADSVKGRFTISRDNAKNTVYLQMNSLKPEDTAVYYCAADRIHSVTRYDYDYWGQGTQVTVSS | low polyreactivity |
| QVQLVESGGGLVQAGGSLRLSCAASGSIITGYAMGWYRQAPGKERELVAAITGNAGSTYYADSVKGRFTISRDNAKNTVYLQMNSLKPEDTAVYYCNARSWYVRGDYWGQGTQVTVSS | low polyreactivity |
| QVQLVESGGGLVQAGGSLRLSCAASGSIITVNAMGWYRQAPGKEREFVAGITSIGGRTYYADSVMGRFTISRDNAKNTVYLQMYSLKPEDTAVYYCNKRSYRARYDYWGQGTQVTVSS | high polyreactivity |
| QVQLVESGGGLVQAGGSLRLSCAASGSIITYYAMGGYRQAPGKERELVAGISARGGSTRYADSVKGRFTISRDNAKNTVYLQMNSLKPEDTAVYYCAADSRTNGYDYWGQGTQVTVSS | high polyreactivity |
| QVQLVESGGGLVQAGGSLRLSCAASGSIIVRYAMGWYRQAPGKDRELVATITFRDTSTYYADSEKGRFTISRDNAKNTVYLQMNSLKPEDTAVYYCAAVRAVLWDIARYDYWGQGSQVTVSS | low polyreactivity |
| QVQLVESGGGLVQAGGSLRLSCAASGSIIVRYAMGWYRQAPGKERELVATITFRDTSTYYADSVKGRFTISRDNAKNTVYLQMNRLIPEDTAVYYCAAVRADLWDIARYDYWGQGTQVTVSS | low polyreactivity |
| QVQLVESGGGLVQAGGSLRLSCAASGSIIVWNAMGWYRQAPGKERELVASITSGASTYYADSVKGRFTISRDNAKNTVYLQINSLKPEDTAVYYCAADPWYVAYLLDGYGMDYWGQGTLVTVSS | low polyreactivity |
| QVQLVESGGGLVQAGGSLRLSCAASGSIIWFYAMGWYRQAPGKEWELVAAISGSDTSTYYADSVKGRFTISRDNAKNTVYLQMNSLKPEDTSVYYCAADDGTTFGYGYWGQGTQVTVSS | low polyreactivity |
| QVQLVESGGGLVQAGGSLRLSCAASGSIIYIYAMGWYRQAPGKERELVAAISSGDRTNYADSVKGRFTISRDNAKNTVYLQMNSLKPEDTAVYYCAAERKNKYDYWGQGTQVTVSS | high polyreactivity |
| QVQLVESGGGLVQAGGSLRLSCAASGSIIYLYAMGWYRQAPGKEREFVAAITWRGASTYYADSVKGRFTISRYNAKNTVYLQMNSLKPEDTAVYYCAAKLPRVYGYGFDYWGQGTQVTVSS | low polyreactivity |
| QVQLVESGGGLVQAGGSLRLSCAASGSIIYSYAMGWYRQAPGKERELVAAISTSAGTTYYADSVKGRFTISRDNAKNTVYLQMNSLKPEDTAVYYCATQVWSHKYWYYYWGQGTQVTVSS | high polyreactivity |
| QVQLVESGGGLVQAGGSLRLSCAASGSIIYYYAMGWYRQAPGKERELVASITRGGSTYYADSVKGRFTISRDNAKNTVYLQMNSLKPEDTAVYYCNADLGAYVPYDYWGQGTQVTVSS | high polyreactivity |
| QVQLVESGGGLVQAGGSLRLSCAASGSILAGYAMGWYRQAPGKERELVAAISGGGGSTYYADSVKGRFTISRDNAKNTVYLQMNSLKPEDTAVYYCAAQDTYYGLFSYWIPWSGYWGQGTQVTVSS | high polyreactivity |
| QVQLVESGGGLVQAGGSLRLSCAASGSILARYAMGWYRPAPGKERELVAAISSRGGSTYYADSVKGRFTISRDNAKNTVYLEINSLKPEDTAVYSCAAYVYLQVEYDYWGHGTQVTVSS | low polyreactivity |
| QVQLVESGGGLVQAGGSLRLSCAASGSILAYNAMGWYRQAPGKERELVAAISWTGRTYYADSVKGRFTISRDNAKNTVYLQMNSLKPEDTAVYYCNARGRQRSRGSQIYDYWGQGSQVTVSS | high polyreactivity |
| QVQLVESGGGLVQAGGSLRLSCAASGSILDGYAMGWYIQAPGKARELVAAITTGGGSTYYADSVKGRFTISRDNAKNTVYLQMNSLKPEDTAVYYCAAYRKPGSWTWWVRGYGYWVQGTQVTVSS | low polyreactivity |
| QVQLVESGGGLVQAGGSLRLSCAASGSILDRYVMGWYRQAPGNGRELVSAITWSGSRTYYADSVKGRFTISRDNAKNTVYLQMNSLKPEDTAVYYCAKVIRRSSTLGNHYYWGQGTQVTVSS | high polyreactivity |
| QVQLVESGGGLVQAGGSLRLSCAASGSILEGNAMGWYRQAPGKERELVASISGDGSTNYADSVKGRFTISRDNAKNTVYLQMNSLKPEDTAVYYCAARYGRIHWKANWPEYGYWGQGTQVTVSS | low polyreactivity |
| QVQLVESGGGLVQAGGSLRLSCAASGSILFLNAMGWYSQAPGKERELVASITDSGGGTYYADSVKGRFTISRDNAKNTVYLQMNSLKPEDTAVYYCNARSRRPDDYWGQGTQVTVSS | low polyreactivity |
| QVQLVESGGGLVQAGGSLRLSCAASGSILFNNAMGWYRQAPGKEWELVAAMGANGGNTYYADSVKGRFTISCDNATNTVYLQMTSLKPEDTAVYYCSADKTLYGGGAWTRWFHYTYGYWGQGTQVTVSS | high polyreactivity |
| QVQLVESGGGLVQAGGSLRLSCAASGSILFRYGMGWYRQAPGKERELVAAINSGGSTYADSVKGRFTISRDNAKNTVYLQMNSLKPEDTAVYYCAKVAWQAHGGPGEFDYWGQGTQVTVSS | low polyreactivity |

| Sequence | polyreactivity (PSR sort gate) |
| --- | --- |
| QVQLVESGGGLVQAGGSLRLSCAASGSILFYNAMGWYRQAPGKERELVAAISSGGSTYYADSVKGRFTISRDNAKNTVYLQMNSLKPEDTAVYNCAARRRYSSVYYYYTTRRGYWGQGTQVTVSS | high polyreactivity |
| QVQLVESGGGLVQAGGSLRLSCAASGSILGGNAMGWYRQAPGKERELVAAITFSGGGTYYADSVKGRFTISRDNGKNTVYLQMNSLKPEDTALYNCAADKDGYTYEFDYWGQGTQVTVSS | low polyreactivity |
| QVQLVESGGGLVQAGGSLRLSCAASGSILGGNAMGWYRQAPGKEWELVAAITFSGGGTYYADSVKGRFTSSRDNAKNTVYLQMNSLKPEDTAVYYCAADKDGYTYEFDYWGQGTQVTVSS | low polyreactivity |
| QVQLVESGGGLVQAGGSLRLSCAASGSILGHYAMGWYRQAPGKERELVAAISWSGGSTYYADSVKGRFTISRDNAKNTVYLQMNSLKPEDTAVYYCNAYLSPKQPLSPPDPTFEGGYWGQGTQVTVSS | low polyreactivity |
| QVQLVESGGGLVQAGGSLRLSCAASGSILGRYAMGWYRQAPGKERELVAAITSSGGRTYYADSVKGRFTISRDNAKNSVYLQMNSLKPEDTAVYYCAARYGRRLVWVPALLYDYWGQGTQVTVSS | high polyreactivity |
| QVQLVESGGGLVQAGGSLRLSCAASGSILGTYAMGWYRQAPGKERDLVAAISSSGRTSYADSVKGRFTISRDNAKNTVYLQMNSLKPEDTAVYFCNKVTSYYVFYTPYYSWGQGTQVTVSS | low polyreactivity |
| QVQLVESGGGLVQAGGSLRLSCAASGSILGTYAMGWYRQAPGKERELVAAISASGRTSYADSEKGRFTISRDNAKNTVYLQMNSLKPEDTAVYDCNASNYFVLINDPDAAPWLYDYWGHGTQVTVSS | low polyreactivity |
| QVQLVESGGGLVQAGGSLRLSCAASGSILGYYAMGWYRQAPGKERELVAAISWSGGRTYYADSVKGRFTISRDNAKNTVYLQMNSLKPEDTAVYYCNARWRSGPRAYDYWGQGTQVTVSS | high polyreactivity |
| QVQLVESGGGLVQAGGSLRLSCAASGSILGYYAMGWYRQAPGKERELVAAITASGGSTYYADSVKGRFTISRDNAKNTVYLQMNSLKPEDTAVYYCNADGGPGYPRAYDYWGQGTQVTVSS | low polyreactivity |
| QVQLVESGGGLVQAGGSLRLSCAASGSILGYYAMGWYRQAPGKERELVAAITWRGGRTYYADSVKGRFTISRDNAMNTVYLQMNSLKPEDTAVYYCAKVPSGYKGYDYWGQGTQVTVSS | high polyreactivity |
| QVQLVESGGGLVQAGGSLRLSCAASGSILKGYAMGWYRQAPGKERELVAAISGSGGSTHYADSVKGRFTISRDNAKNTVYLQMNSLKPEDTAVYYCAAAYKWTYYWGQGTQVTVSS | high polyreactivity |
| QVQLVESGGGLVQAGGSLRLSCAASGSILKYYAMGWYRQAPGKERELVAAISSGGSTYYADSVKGRFTISRDNAKNTVYLQMNSLKPEDTAVYYCAAAWYGAKYIVLYDYWGQGTQVTVSS | low polyreactivity |
| QVQLVESGGGLVQAGGSLRLSCAASGSILLDNAMGWSRQAPGKERELVAAISLSGGGSTYYADSVKGRFTISRDNAKNTVYLQMNSLKPEATAVYYCAAASTYPLPYDYWGQGTQVTVSS | low polyreactivity |
| QVQLVESGGGLVQAGGSLRLSCAASGSILLPYAMGRYRHAPGKERELVAAITYRGASTHYAASVKGRFTISRDNAKNTVYLQMNSLKQEDPAVYYCAARGWVYYASEMDYWGQGTQGTVSS | low polyreactivity |
| QVQLVESGGGLVQAGGSLRLSCAASGSILLRNTMGWYRQAPGKERELVAAISWRGGSTYYADSVKGRFTISRDNAKNTVYLQMNSLKPEDTAVYYCAARWVASHKGGYWGQGTQVTVSS | high polyreactivity |
| QVQLVESGGGLVQAGGSLRLSCAASGSILNRYAMGWYRQAPGKERELVAAISRRSGSTYYADSVKGRFTISRDNAKNTVYLQMNSLKPEDTAVYYCAATSSLGDFRYDYWGQGTQVTVSS | high polyreactivity |
| QVQLVESGGGLVQAGGSLRLSCAASGSILNSYAMGWYRQAPGKERELVATITSGSRTNYADSVKGRFTISRDNAKNTVYLQMNSLKPEDTAVYYCATEYQRRHYIGHNYWGQGTQVTVSS | low polyreactivity |
| QVQLVESGGGLVQAGGSLRLSCAASGSILPYYAMGWYRPAPGKERELVATITDGTDTYYADSVKGRFTISRDNAKNTVYLQMTSLKPEDTAVYYCARKQYWGYDYWGQGTQVTVSS | low polyreactivity |
| QVQLVESGGGLVQAGGSLRLSCAASGSILQPNAMGWYRQAPGKERELVAAISWSGDNTYYADSVKGRFTISRDNAKNTVYLQMNSLKPEDTAVYYCATDADIYFQEYDYWGQGTQVTVSS | low polyreactivity |
| QVQLVESGGGLVQAGGSLRLSCAASGSILQRYAMGWYRQAPGKERELVAAISTSGSSTYYADSVKGRFTISRDNAKNTVYLQMNSLKPEDTAVYYCAAKSRKFDYWGQGTQVTVSS | high polyreactivity |
| QVQLVESGGGLVQAGGSLRLSCAASGSILQTNVMGWYRQAPGKEREFVAAIRWSTVSTYYADSVKGRFTISRDNAKNTVYLQMKSLKPEDTAVYYCASAKSWYSYKMDYWGQGTQVTVSS | low polyreactivity |

— the nanobody polyreactivity screen of Harvey et al. (2022)
